Measured values published in article PMC5796856 (Molecular microbiology, 2018).
Values belong to the molecule of their own block, whether it stands above or below them.

Legend:
[1] = molecular target: T1, FtsA (Escherichia coli, UniProt P0ABH0); experiment: mant fluorescence titration; type: binding
T1 sequence (P0ABH0 1-420): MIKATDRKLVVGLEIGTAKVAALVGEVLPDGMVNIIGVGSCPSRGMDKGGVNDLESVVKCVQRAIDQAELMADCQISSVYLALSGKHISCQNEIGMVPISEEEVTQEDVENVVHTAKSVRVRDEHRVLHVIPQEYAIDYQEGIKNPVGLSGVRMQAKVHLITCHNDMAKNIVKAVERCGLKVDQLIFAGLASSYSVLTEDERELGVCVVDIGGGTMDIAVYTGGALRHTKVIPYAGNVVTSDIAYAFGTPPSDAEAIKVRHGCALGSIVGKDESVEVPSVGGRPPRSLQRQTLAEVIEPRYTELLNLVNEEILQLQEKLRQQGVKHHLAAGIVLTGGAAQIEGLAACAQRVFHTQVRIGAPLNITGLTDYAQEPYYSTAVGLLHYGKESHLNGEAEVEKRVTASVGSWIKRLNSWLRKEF

[2] = molecular target: FtsA (Escherichia coli, UniProt P0ABH0, K86A); experiment: mant fluorescence titration; type: binding
FtsA (Escherichia coli, UniProt P0ABH0, K86A), sequence (P0ABH0 whole entry K86A): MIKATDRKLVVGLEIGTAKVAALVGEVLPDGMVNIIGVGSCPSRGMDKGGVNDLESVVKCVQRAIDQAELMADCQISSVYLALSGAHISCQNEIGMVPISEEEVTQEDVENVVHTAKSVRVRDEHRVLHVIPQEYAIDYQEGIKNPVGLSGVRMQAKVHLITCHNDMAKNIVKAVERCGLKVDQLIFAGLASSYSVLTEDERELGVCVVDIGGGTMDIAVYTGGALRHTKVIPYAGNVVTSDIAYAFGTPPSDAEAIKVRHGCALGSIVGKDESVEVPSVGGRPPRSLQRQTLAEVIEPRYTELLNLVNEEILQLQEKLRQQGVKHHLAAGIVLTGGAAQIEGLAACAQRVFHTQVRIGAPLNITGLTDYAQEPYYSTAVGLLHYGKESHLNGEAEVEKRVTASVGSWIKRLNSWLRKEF

[3] = molecular target: FtsA (E. coli) (UniProt P0ABH0); experiment: co-sedimentation
[4] = molecular target: T2, FtsA (E. coli, UniProt P0ABH0 1-420); experiment: confocal fluorescence microscopy of recruitment to vesicles in vitro
T2 sequence (looked up): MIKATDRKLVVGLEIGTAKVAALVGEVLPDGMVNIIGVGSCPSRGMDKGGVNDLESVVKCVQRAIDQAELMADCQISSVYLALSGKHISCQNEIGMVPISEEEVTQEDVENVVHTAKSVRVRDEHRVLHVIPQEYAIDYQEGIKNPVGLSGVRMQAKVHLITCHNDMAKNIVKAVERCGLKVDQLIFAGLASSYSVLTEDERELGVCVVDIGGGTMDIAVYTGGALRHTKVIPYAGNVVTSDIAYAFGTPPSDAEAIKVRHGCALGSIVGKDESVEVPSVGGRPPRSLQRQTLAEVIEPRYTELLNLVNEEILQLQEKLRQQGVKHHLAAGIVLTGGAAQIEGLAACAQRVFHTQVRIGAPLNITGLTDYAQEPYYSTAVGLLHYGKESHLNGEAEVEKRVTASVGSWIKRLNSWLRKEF

[5] = molecular target: the molecule itself; experiment: sedimentation of polymers by ultracentrifugation
[6] = molecular target: the molecule itself; experiment: SEC

Kd [1]: 26.2 ± 3 µM
Kd [2]: 27.9 ± 0.5 µM
Molecule: CNc1ccccc1C(=O)O[C@H]1[C@@H](O)[C@H](n2cnc3c(N)ncnc32)O[C@@H]1CO[P@@](=O)(O)O[P@](=O)(O)OP(=O)(O)O [mant-ATP]

percent of FtsZ in the pellet [3]: 35.6%
Molecule: FtsZ(R379E) (from UniProt P0A9A6 1-383) (natural protein)

binding result [4]: binds
B1: FL-FtsZ (natural protein, E. coli, UniProt P0A9A6 1-383, looked up)
chain: MFEPMELTNDAVIKVIGVGGGGGNAVEHMVRERIEGVEFFAVNTDAQALRKTAVGQTIQIGSGITKGLGAGANPEVGRNAADEDRDALRAALEGADMVFIAAGMGGGTGTGAAPVVAEVAKDLGILTVAVVTKPFNFEGKKRMAFAEQGITELSKHVDSLITIPNDKLLKVLGRGISLLDAFGAANDVLKGAVQGIAELITRPGLMNVDFADVRTVMSEMGYAMMGSGVASGEDRAEEAAEMAISSPLLEDIDLSGARGVLVNITAGFDLRLDEFETVGNTIRAFASDNATVVIGTSLDPDMNDELRVTVVATGIGMDKRPEITLVTNKQVQQPVMDRYQQHGMAPLTQEQKPVAKVVNDNAPQTAKEPDYLDIPAFLRKQAD
modifications: Alexa Fluor 488 label

B2: FtsZ (natural protein, E. coli, UniProt P0A9A6 1-383, looked up)
chain: MFEPMELTNDAVIKVIGVGGGGGNAVEHMVRERIEGVEFFAVNTDAQALRKTAVGQTIQIGSGITKGLGAGANPEVGRNAADEDRDALRAALEGADMVFIAAGMGGGTGTGAAPVVAEVAKDLGILTVAVVTKPFNFEGKKRMAFAEQGITELSKHVDSLITIPNDKLLKVLGRGISLLDAFGAANDVLKGAVQGIAELITRPGLMNVDFADVRTVMSEMGYAMMGSGVASGEDRAEEAAEMAISSPLLEDIDLSGARGVLVNITAGFDLRLDEFETVGNTIRAFASDNATVVIGTSLDPDMNDELRVTVVATGIGMDKRPEITLVTNKQVQQPVMDRYQQHGMAPLTQEQKPVAKVVNDNAPQTAKEPDYLDIPAFLRKQAD
binding result [5]: binds

B3: FtsZ(R379E) (natural protein, E. coli, UniProt P0A9A6 1-383, looked up)
chain: MFEPMELTNDAVIKVIGVGGGGGNAVEHMVRERIEGVEFFAVNTDAQALRKTAVGQTIQIGSGITKGLGAGANPEVGRNAADEDRDALRAALEGADMVFIAAGMGGGTGTGAAPVVAEVAKDLGILTVAVVTKPFNFEGKKRMAFAEQGITELSKHVDSLITIPNDKLLKVLGRGISLLDAFGAANDVLKGAVQGIAELITRPGLMNVDFADVRTVMSEMGYAMMGSGVASGEDRAEEAAEMAISSPLLEDIDLSGARGVLVNITAGFDLRLDEFETVGNTIRAFASDNATVVIGTSLDPDMNDELRVTVVATGIGMDKRPEITLVTNKQVQQPVMDRYQQHGMAPLTQEQKPVAKVVNDNAPQTAKEPDYLDIPAFLEKQAD
binding result [5]: binds

B4: FtsA(ΔMTS) (domain or fragment, E. coli, UniProt P0ABH0 1-404, looked up)
chain: MIKATDRKLVVGLEIGTAKVAALVGEVLPDGMVNIIGVGSCPSRGMDKGGVNDLESVVKCVQRAIDQAELMADCQISSVYLALSGKHISCQNEIGMVPISEEEVTQEDVENVVHTAKSVRVRDEHRVLHVIPQEYAIDYQEGIKNPVGLSGVRMQAKVHLITCHNDMAKNIVKAVERCGLKVDQLIFAGLASSYSVLTEDERELGVCVVDIGGGTMDIAVYTGGALRHTKVIPYAGNVVTSDIAYAFGTPPSDAEAIKVRHGCALGSIVGKDESVEVPSVGGRPPRSLQRQTLAEVIEPRYTELLNLVNEEILQLQEKLRQQGVKHHLAAGIVLTGGAAQIEGLAACAQRVFHTQVRIGAPLNITGLTDYAQEPYYSTAVGLLHYGKESHLNGEAEVEKRVTAS
stoichiometry N [6]: 2
